± gives the standard deviation of the averaged measurements.

The text below walks through data of the supplement of paper PMC11246515.

A short description of this data set: total protein half-life in vivo (active degradation + dilution); higher = more stable protein.
[1] abbreviates: E. coli NCM3722 delta-clpP delta-lon delta-hslV, growth: N-lim chemostat, doubling time 6 h.
The mark [2] stands for this setting: E. coli NCM3722 delta-clpP, growth: N-lim chemostat, doubling time 6 h.
[3] abbreviates: E. coli NCM3722 delta-hslV, growth: N-lim chemostat, doubling time 6 h.
Where [4] appears, read: E. coli NCM3722 delta-lon, growth: N-lim chemostat, doubling time 6 h.
The mark [5] stands for this setting: wild type E. coli NCM3722, growth: C-lim chemostat, doubling time 3 h.
[6] abbreviates: wild type E. coli NCM3722, growth: C-lim chemostat, doubling time 6 h.
Where [7] appears, read: wild type E. coli NCM3722, growth: C-lim chemostat, doubling time 12 h.
Setting [8] is: wild type E. coli NCM3722, growth: N-lim chemostat, doubling time 6 h.
Setting [9] is: wild type E. coli NCM3722, growth: N-lim chemostat, doubling time 12 h.
[10] abbreviates: wild type E. coli NCM3722, growth: P-lim chemostat, doubling time 6 h.
Where [11] appears, read: wild type E. coli NCM3722, growth: P-lim chemostat, doubling time 12 h.
The mark [12] stands for this setting: E. coli NCM3722 delta-smpB, growth: N-lim chemostat, doubling time 6 h.

As to “MHFRAITRIVGLLVILFSGTMIIPGLVALIYRDGAGRAFTQTFFVALAIGSMLWWPNRKEKGELKSREGFLIVVLFWTVLGSVGALPFIFSESPNLTITDAFFESFSGLTTTGATTLVGLDSLPHAILFYRQMLQWFGGMGIIVLAVAILPILGVGGMQLYRAEMPGPLKDNKMRPRIAETAKTLWLIYVLLTVACALALWFAGMDAFDAIGHSFATIAIGGFSTHDASIGYFDSPTINTIIAIFLLISGCNYGLHFSLLSGRSLKVYWRDPEFRMFIGVQFTLVVICTLVLWFHNVYSSALMTINQAFFQVVSMATTAGFTTDSIARWPLFLPVLLLCSAFIGGCAGSTGGGLKVIRILLLFKQGNRELKRLVHPNAVYSIKLGNRALPERILEAVWGFFSAYALVFIVSMLAIIATGVDDFSAFASVVATLNNLGPGLGVVADNFTSMNPVAKWILIANMLFGRLEVFTLLVLFTPTFWRE [P0AFZ7]”, the “total protein half-life in vivo” value reads like this: under setting [1], 7.11 h; under setting [2], 6.5 h; under setting [3], 6.15 ± 0.27 h; under setting [4], 5.5 ± 1.2 h; under setting [5], 3.51 ± 0.23 h; under setting [6], 6.13 ± 0.096 h. The “total protein half-life in vivo” value under setting [7] came to 12.8 ± 1.7 h; the “total protein half-life in vivo” value under setting [8] was 6.77 ± 0.85 h; the “total protein half-life in vivo” value under setting [9] was found to be 12.3 ± 0.14 h; the “total protein half-life in vivo” value under setting [10] was found to be 5.4 h; the “total protein half-life in vivo” value under setting [11] stood at 11.4 ± 0.63 h.

For “MSEPMMWLLVRGVWETLAMTFVSGFFGFVIGLPVGVLLYVTRPGQIIANAKLYRTVSAIVNIFRSIPFIILLVWMIPFTRVIVGTSIGLQAAIVPLTVGAAPFIARMVENALLEIPTGLIEASRAMGATPMQIVRKVLLPEALPGLVNAATITLITLVGYSAMGGAVGAGGLGQIGYQYGYIGYNATVMNTVLVLLVILVYLIQFAGDRIVRAVTRK”, the “total protein half-life in vivo” value stood at 6.59 h under setting [1]; 6.5 h under setting [2]; 6.24 h under setting [3]; 5.881 ± 0.054 h under setting [4]; 5.76 ± 0.38 h under setting [12]; 3.25 ± 0.28 h under setting [5]. Besides, the “total protein half-life in vivo” value reads like this: under setting [6], 6.38 h; under setting [7], 11.6 h; under setting [8], 6.095 ± 0.06 h; under setting [9], 11.6 ± 1.8 h; under setting [10], 6.63 ± 0.78 h.

As to “MKILVDENMPYARDLFSRLGEVTAVPGRPIPVAQLADADALMVRSVTKVNESLLAGKPIKFVGTATAGTDHVDEAWLKQAGIGFSAAPGCNAIAVVEYVFSSLLMLAERDGFSLYDRTVGIVGVGNVGRRLQARLEALGIKTLLCDPPRADRGDEGDFRSLDELVQRADILTFHTPLFKDGPYKTLHLADEKLIRSLKPGAILINACRGAVVDNTALLTCLNEGQKLSVVLDVWEGEPELNVELLKKVDIGTSHIAGYTLEGKARGTTQVFEAYSKFIGHEQHVALDTLLPAPEFGRITLHGPLDQPTLKRLVHLVYDVRRDDAPLRKVAGIPGEFDKLRKNYLERREWSSLYVICDDASAASLLCKLGFNAVHHPAR”, the “total protein half-life in vivo” value came out at 5.83 ± 1.3 h under setting [1]; 5.47 ± 1.3 h under setting [2]; 5.17 ± 0.28 h under setting [3]; 5.42 ± 0.064 h under setting [4]; 4.62 ± 0.18 h under setting [12]; 3 ± 0.38 h under setting [5]. The “total protein half-life in vivo” value was 5.58 ± 0.23 h under setting [6]; 12.6 ± 3.2 h under setting [7]; 4.72 ± 0.047 h under setting [8]; 8.268 ± 0.016 h under setting [9]; 5.71 ± 0.38 h under setting [10]; 11.1 ± 0.13 h under setting [11].

For the sequence “MKQHQSADNSQGQLYIVPTPIGNLADITQRALEVLQAVDLIAAEDTRHTGLLLQHFGINARLFALHDHNEQQKAETLLAKLQEGQNIALVSDAGTPLINDPGYHLVRTCREAGIRVVPLPGPCAAITALSAAGLPSDRFCYEGFLPAKSKGRRDALKAIEAEPRTLIFYESTHRLLDSLEDIVAVLGESRYVVLARELTKTWETIHGAPVGELLAWVKEDENRRKGEMVLIVEGHKAQEEDLPADALRTLALLQAELPLKKAAALAAEIHGVKKNALYKYALEQQG”, the “total protein half-life in vivo” value by setting is: under setting [1], 6.24 ± 1.1 h; under setting [2], 5.77 ± 0.73 h; under setting [3], 5.85 ± 0.46 h; under setting [4], 5.1 ± 0.5 h; under setting [12], 5.25 ± 0.13 h; under setting [5], 3.41 ± 0.11 h. Moreover, the “total protein half-life in vivo” value is 11.8 ± 2.3 h under setting [7]; 5.57 ± 0.17 h under setting [8]; 10.5 ± 0.56 h under setting [9]; 5.46 ± 0.11 h under setting [10]; 12.4 ± 0.41 h under setting [11].

For “MADNKPELQRGLEARHIELIALGGTIGVGLFMGAASTLKWAGPSVLLAYIIAGLFVFFIMRSMGEMLFLEPVTGSFAVYAHRYMSPFFGYLTAWSYWFMWMAVGISEITAIGVYVQFWFPEMAQWIPALIAVALVALANLAAVRLYGEIEFWFAMIKVTTIIVMIVIGLGVIFFGFGNGGQSIGFSNLTEHGGFFAGGWKGFLTALCIVVASYQGVELIGITAGEAKNPQVTLRSAVGKVLWRILIFYVGAIFVIVTIFPWNEIGSNGSPFVLTFAKIGITAAAGIINFVVLTAALSGCNSGMYSCGRMLYALAKNRQLPAAMAKVSRHGVPVAGVAVSIAILLIGSCLNYIIPNPQRVFVYVYSASVLPGMVPWFVILISQLRFRRAHKAAIASHPFRSILFPWANYVTMAFLICVLIGMYFNEDTRMSLFVGIIFMLAVTAIYKVFGLNRHGKAHKLEE”, the “total protein half-life in vivo” value was found to be 6.95 h under setting [1]; 6.01 ± 0.26 h under setting [3]; 5.41 ± 0.71 h under setting [4]; 5.99 ± 1.1 h under setting [12]; 6.82 ± 0.17 h under setting [6]; 10.7 h under setting [7]. In addition, the “total protein half-life in vivo” value is 5.01 h under setting [8], 11.7 h under setting [9], > 8 h under setting [10] and 12.7 ± 2.9 h under setting [11].

Consider “MQATATTLDHEQEYTPINSRNKVLVASLIGTAIEFFDFYIYATAAVIVFPHIFFPQGDPTAATLQSLATFAIAFVARPIGSAVFGHFGDRVGRKATLVASLLTMGISTVVIGLLPGYATIGIFAPLLLALARFGQGLGLGGEWGGAALLATENAPPRKRALYGSFPQLGAPIGFFFANGTFLLLSWLLTDEQFMSWGWRVPFIFSAVLVIIGLYVRVSLHESPVFEKVAKAKKQVKIPLGTLLTKHVRVTVLGTFIMLATYTLFYIMTVYSMTFSTAAAPVGLGLPRNEVLWMLMMAVIGFGVMVPVAGLLADAFGRRKSMVIITTLIILFALFAFNPLLGSGNPILVFAFLLLGLSLMGLTFGPMGALLPELFPTEVRYTGASFSYNVASILGASVAPYIAAWLQTNYGLGAVGLYLAAMAGLTLIALLLTHETRHQSL”, for which the “total protein half-life in vivo” value by setting is: under setting [7], 2.58 ± 0.1 h; under setting [10], 2.33 ± 0.58 h; under setting [11], 2.89 ± 1.6 h.

For “MNIVVLISGNGSNLQAIIDACKTNKIKGTVRAVFSNKADAFGLERARQAGIATHTLIASAFDSREAYDRELIHEIDMYAPDVVVLAGFMRILSPAFVSHYAGRLLNIHPSLLPKYPGLHTHRQALENGDEEHGTSVHFVTDELDGGPVILQAKVPVFAGDSEDDITARVQTQEHAIYPLVISWFADGRLKMHENAAWLDGQRLPPQGYAADE”, the “total protein half-life in vivo” value under setting [1] worked out at 4.883 ± 0.024 h; the “total protein half-life in vivo” value under setting [2] stood at 4.97 ± 0.32 h; the “total protein half-life in vivo” value under setting [3] was found to be 5.15 ± 1.4 h; the “total protein half-life in vivo” value under setting [4] was 4.68 ± 0.53 h; the “total protein half-life in vivo” value under setting [12] was determined as 4.39 ± 0.18 h; the “total protein half-life in vivo” value under setting [5] worked out at 2.94 ± 0.6 h. Further, the “total protein half-life in vivo” value is 5.63 ± 2.2 h under setting [6], 4.49 ± 0.41 h under setting [8], 9.87 ± 3.2 h under setting [9] and 5.58 ± 0.33 h under setting [10].

In the case of “MSKPIVMERGVKYRDADKMALIPVKNVATEREALLRKPEWMKIKLPADSTRIQGIKAAMRKNGLHSVCEEASCPNLAECFNHGTATFMILGAICTRRCPFCDVAHGRPVAPDANEPVKLAQTIADMALRYVVITSVDRDDLRDGGAQHFADCITAIREKSPQIKIETLVPDFRGRMDRALDILTATPPDVFNHNLENVPRIYRQVRPGADYNWSLKLLERFKEAHPEIPTKSGLMVGLGETNEEIIEVMRDLRRHGVTMLTLGQYLQPSRHHLPVQRYVSPDEFDEMKAEALAMGFTHAACGPFVRSSYHADLQAKGMEVK”, the “total protein half-life in vivo” value came out at 5.22 ± 1 h under setting [1]; 1.56 ± 0.071 h under setting [2]; 1.64 ± 0.38 h under setting [3]; 1.84 ± 0.034 h under setting [4]; 1.27 ± 0.14 h under setting [12]; 1.23 ± 0.056 h under setting [5]. Also, the “total protein half-life in vivo” value under setting [6] stood at 1.93 ± 0.095 h; the “total protein half-life in vivo” value under setting [7] is 2.47 ± 0.21 h; the “total protein half-life in vivo” value under setting [8] was determined as 1.67 ± 0.095 h; the “total protein half-life in vivo” value under setting [9] amounted to 2.4 ± 0.28 h; the “total protein half-life in vivo” value under setting [10] came out at 1.74 ± 0.22 h; the “total protein half-life in vivo” value under setting [11] was 3.3 ± 0.49 h.
